The test concerns the target angiotensin converting enzyme (ACE, EC 3.4.15.1, Sigma). Briefly: cell-based or functional assay.

“ovalbumin grade VI (99% purity, Sigma), unhydrolysed (from UniProt P01012 2-386)” yielded an ACEI activity, IC50 of over 750 µg/mL.

The values above are taken from US20060280804A1.
